T1: human PD-L2 (human, UniProt Q9BQ51 20-220, limits assumed)
T1 construct: Coated on plates in the direct ELISA; construct not described; also called programmed death ligand-2
T1 sequence (looked up): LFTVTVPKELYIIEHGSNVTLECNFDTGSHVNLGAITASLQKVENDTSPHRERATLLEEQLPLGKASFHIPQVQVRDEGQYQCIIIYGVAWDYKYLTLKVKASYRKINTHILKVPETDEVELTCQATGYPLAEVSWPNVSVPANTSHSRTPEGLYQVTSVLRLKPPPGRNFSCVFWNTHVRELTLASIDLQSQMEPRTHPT


Experiments:
[1] = target: T1, human PD-L2; assay: direct ELISA, human PD-L2 coated
Method: The procedures of the direct ELISA are described in the method below. […] The negative control was conducted using the same procedures as the anti-human PD-L1 antibodies, except that a blank buffer is used instead of the anti-human PD-L1 antibodies. The blank buffer is the buffer for diluting the anti-human PD-L1 antibodies. […] Thereby, 2C5, 3B8, 8C6, 10H6, 11G7, and 12H2 can eliminate the cross-reactivity of human PD-L2.
(§1) 3. Direct ELISA with rabbit monoclonal antibodies against human PD-L1 or PD-L2. Human PD-L1 and PD-L2 were coated on high binding ELISA plates at 4° C. overnight in 1×PBS, pH7.4. Coated plates were washed with Wash Buffer (1×PBS supplemented with 0.5% (V/V) Tween-20), and blocked with Blocking Buffer (1×PBS supplemented with 5% (W/V) skim milk). After blocking, plates were incubated with rabbit anti-PD-L1 monoclonal antibodies for 1 hour at room temperature, followed by washing and incubation with goat anti-rabbit IgG antibody conjugated with HRP. After a final wash, plated were developed using colorimetric reaction catalyzed by HRP to see if a monoclonal antibody can or cannot bind to PD-L1 and PD-L2.

[2] = target: T2, human PD-L1 (human, UniProt Q9NZQ7 19-238, limits assumed); assay: sandwich ELISA (8C6 capture, 2C5 detection) compared with direct ELISA
T2 construct: also called programmed death ligand-1; CD274
Method: As compared to the direct ELISA with 8C6 shown in FIG. […] The sandwich ELISA enhances the sensitivity of human PD-L1 to 2C5, as compared to the direct ELISA.
as §1
5. Sandwich ELISA with rabbit monoclonal antibodies against human PD-L1. Capture antibodies were coated on high binding ELISA plates at 4° C. overnight in bicarbonate buffer. Coated plates were washed with Wash Buffer (1×PBS supplemented with 0.5% (V/V) Tween-20), and blocked with Blocking Buffer (1×PBS supplemented with 5% (W/V) skim milk). […]

[3] = target: T2, human PD-L1; assay: direct ELISA, 10 ng/ml human PD-L1
Method: as §1

T2 sequence (Q9NZQ7 19-238 limits assumed): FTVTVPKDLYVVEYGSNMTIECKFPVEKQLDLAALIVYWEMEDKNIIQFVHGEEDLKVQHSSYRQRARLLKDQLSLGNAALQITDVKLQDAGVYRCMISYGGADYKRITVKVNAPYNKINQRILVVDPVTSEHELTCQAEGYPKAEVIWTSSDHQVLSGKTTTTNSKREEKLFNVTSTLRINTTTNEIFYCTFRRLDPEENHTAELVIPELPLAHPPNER

fold sensitivity, sandwich ELISA against direct ELISA [2] | OD450 at 10 ng/ml [3] | Binder | binding result [1]
≥ 2 fold |  | rabbit anti-human PD-L1 mAb 2C5 (antibody, V domains shown, Recombinant rabbit IgG; Full heavy chain assembled from the Fab heavy chain entry followed by the Fc entry; Biotinylated when used as detection antibody in the sandwich ELISA) VH: QSVEESGGRLVTPGTPLTLTCTVSGFSLNNDNVGWVRQAPGKGLEWVGLIDILGSSYYASWAKGRFTISKTSNTVDLKITSPTIEDTATYFCAREGDGSFDPWGPGTLVTVSS VL: AQVLTQTPSPVSAAVGGTVTINCQASQNVYNKKNLAWYQQKLGQPPKLLIYKASTLASGVPSRFSGSGSGTQFTLTISDLECDDAATYYCQGDYIGSRAFGGGTEVVVKG | no binding (tested: concentrations up to 1000 ng/ml)
 |  | rabbit anti-human PD-L1 mAb 3B8 (antibody, V domains shown, Recombinant rabbit IgG; Full heavy chain assembled from the Fab heavy chain entry followed by the Fc entry; Biotinylated when used as detection antibody in the sandwich ELISA) VH: QSLEESGGDLVKPGASRTLTCTASGFSFSNNAYMCWVRQAPGKGLELIACIYSRYGNTHYASWAKGRFTISKTSSTTVTLQMTSLTAADTATYFCARGASGSSDYSFYFNLWGPGTLVTVSS VL: AYDMTQTPASVEVAVGGTVTIKCQASQSISSWLAWYQQKPGQPPKLLIYDAYDLASGVPSRFKGSGSGTQFTLTISGVECTDAATYYCQQGYSSENIDNSFGGGTDVVVKG | no binding (tested: concentrations up to 1000 ng/ml)
 |  | rabbit anti-human PD-L1 mAb 10H6 (antibody, V domains shown, Recombinant rabbit IgG; Full heavy chain assembled from the Fab heavy chain entry followed by the Fc entry) VH: QEQLVESGGGLVQPEGSLTLTCTASGFSFSSIYYLCWVRQAPGKGLEWIACIYGGNSDNTWYASWAKGRFTISKTSSTTVTLQMTSLTAADTATYFCARGYDIYGYAINLWGPGTLVTVSS VL: DVVMTQTPASVEAAVGGTVTIKCQASQSIGGYLAWYQQKPGQPPKLLIYRASTLESGVASRFKGSGSGTEFTLTISDLECADAATYYCQCTYDSSNSRIYPNVFGGGTEVVVKG | no binding (tested: concentrations up to 1000 ng/ml)
 | ~0.1 OD450 | rabbit anti-human PD-L1 mAb 11G7 (antibody, V domains shown, Recombinant rabbit IgG; Full heavy chain assembled from the Fab heavy chain entry followed by the Fc entry) VH: QSVEESGGRLVTPGTPLTLTCTVSGIDLSSYDMTWVRQAPGKGLEYIGYISYFDKTYYATWAKGRFTISKTSTTVDLKMTSLTTEDTATYFCVRDRPDGITANLWGQGTLVTVSS VL: AQLPTQTASPVSAAVGGTVTINCQSSHNVYSDNRLSWYQQKPGQPPKLLIYWASILASGVPSRFKGSGSGTQFTLTITDLECDDAATYYCAGGYSGNIYTFGGGTEVVVKG | no binding (tested: concentrations up to 1000 ng/ml)
 |  | rabbit anti-human PD-L1 mAb 8C6 (antibody, V domains shown, Recombinant rabbit IgG; Full heavy chain assembled from the Fab heavy chain entry followed by the Fc entry; Biotinylated when used as detection antibody in the sandwich ELISA) VH: QSVEESGGRLVTPGTPLTLTCTASGFDISRHHMCWVRQAPGEGLEYIGFINPPGSAYYANWAKGRFTISRTSTTVALEMTSLTTEDTATYFCARWRFDDYGDLWGQGTLVTVSS VL: AYDMTQTPASVEVAVGGTVTIKCQASESIASYLAWYQQKPGQPPKLLIYKASTLASGVSSRFRGSGSGTEFTLTISGVECADAATYYCQQGYSATNIDNAFGGGTEVVVKG | no binding (tested: concentrations up to 1000 ng/ml)
 |  | rabbit anti-human PD-L1 mAb 12H2 (antibody, V domains shown, Recombinant rabbit IgG; Full heavy chain assembled from the Fab heavy chain entry followed by the Fc entry) VH: QEQLVESGGGLVQPEGSLTLTCTASGFSFSSSYYMCWVRQAPGKGLEWIACIWTSNGGRTYYANWAKGRFTISETSSTTVTLQMTSLTAADTATYFCARDDDTGSGYYNLWGPGTLVTVSS VL: QIVMTQTASPVSAAVGGTVTINCQASESISSWLAWYQQKPGQPPKLLIYKASTLASGVPSRFKGSGSGTEFTLTISDLECADAATYYCQHGYYFGSVANTFGGGTEVVVKG | no binding (tested: concentrations up to 1000 ng/ml)

Source: patent publication US20200386770A1 (YUROGEN BIOSYSTEMS, published 2020)
